Source: the supplement of paper PMC10065799, “High-throughput profiling of sequence recognition by tyrosine kinases and SH2 domains using bacterial peptide display” (eLife, 2023)

Tests used:
c-Abl (mouse) = experiment: phosphorylation enrichment, bacterial display (enrichment ratio); higher = better substrate or ligand; peptides without Tyr show the background
c-Src = experiment: as above
Hck = Hck (UniProt P08631); experiment: as above
Fer (mouse) = experiment: as above
FGFR1 = FGFR1 (UniProt P11362); experiment: as above
Chain of FGFR1 (P11362 whole entry, looked up): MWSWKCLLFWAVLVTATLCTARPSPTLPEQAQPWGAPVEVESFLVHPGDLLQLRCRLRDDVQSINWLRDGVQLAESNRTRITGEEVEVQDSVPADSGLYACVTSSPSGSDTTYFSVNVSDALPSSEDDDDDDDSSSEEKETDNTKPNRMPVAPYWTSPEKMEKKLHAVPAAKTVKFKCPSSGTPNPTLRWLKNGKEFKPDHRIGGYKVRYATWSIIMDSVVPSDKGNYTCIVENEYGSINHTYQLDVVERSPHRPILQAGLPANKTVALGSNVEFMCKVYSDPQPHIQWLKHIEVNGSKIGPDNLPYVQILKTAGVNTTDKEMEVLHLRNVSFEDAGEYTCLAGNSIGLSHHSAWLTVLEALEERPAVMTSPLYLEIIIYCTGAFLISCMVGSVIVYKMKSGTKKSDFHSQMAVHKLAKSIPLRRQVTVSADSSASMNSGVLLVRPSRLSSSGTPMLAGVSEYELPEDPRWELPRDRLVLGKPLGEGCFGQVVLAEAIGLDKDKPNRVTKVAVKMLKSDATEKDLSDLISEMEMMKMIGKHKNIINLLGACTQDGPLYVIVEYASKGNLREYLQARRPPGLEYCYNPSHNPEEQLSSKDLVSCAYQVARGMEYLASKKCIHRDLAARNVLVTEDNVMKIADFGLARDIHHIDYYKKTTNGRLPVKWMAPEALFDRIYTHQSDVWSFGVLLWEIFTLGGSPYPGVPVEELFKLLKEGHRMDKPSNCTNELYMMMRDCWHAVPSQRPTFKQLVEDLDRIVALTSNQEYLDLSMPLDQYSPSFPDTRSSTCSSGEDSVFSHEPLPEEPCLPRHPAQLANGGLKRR

FGFR3 = FGFR3 (UniProt P22607); experiment: as above
Chain of FGFR3 (P22607 whole entry, looked up): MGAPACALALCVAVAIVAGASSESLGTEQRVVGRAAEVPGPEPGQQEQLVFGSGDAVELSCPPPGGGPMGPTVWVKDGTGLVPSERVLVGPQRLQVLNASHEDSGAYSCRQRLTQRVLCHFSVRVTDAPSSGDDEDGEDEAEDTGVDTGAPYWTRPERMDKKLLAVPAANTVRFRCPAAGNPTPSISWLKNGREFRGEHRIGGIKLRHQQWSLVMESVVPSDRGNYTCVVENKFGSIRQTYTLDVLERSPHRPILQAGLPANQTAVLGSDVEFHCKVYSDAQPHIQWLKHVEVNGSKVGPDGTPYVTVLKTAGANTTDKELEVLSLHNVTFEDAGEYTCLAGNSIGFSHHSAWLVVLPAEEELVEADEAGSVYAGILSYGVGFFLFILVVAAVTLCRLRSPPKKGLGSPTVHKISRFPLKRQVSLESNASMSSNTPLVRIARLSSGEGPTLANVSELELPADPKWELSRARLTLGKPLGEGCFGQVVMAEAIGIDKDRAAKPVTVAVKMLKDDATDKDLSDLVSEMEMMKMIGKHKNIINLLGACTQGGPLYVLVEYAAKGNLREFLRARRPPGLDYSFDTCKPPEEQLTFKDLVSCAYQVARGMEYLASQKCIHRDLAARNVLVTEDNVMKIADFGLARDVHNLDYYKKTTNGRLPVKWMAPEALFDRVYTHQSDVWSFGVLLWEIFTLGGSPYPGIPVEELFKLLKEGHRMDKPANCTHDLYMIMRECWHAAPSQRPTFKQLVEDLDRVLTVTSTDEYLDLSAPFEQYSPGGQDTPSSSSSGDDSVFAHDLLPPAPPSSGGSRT

Jak2 = Jak2 (UniProt O60674); experiment: as above
Fyn = Fyn (UniProt P06241); experiment: as above
Chain of Fyn (P06241 whole entry, looked up): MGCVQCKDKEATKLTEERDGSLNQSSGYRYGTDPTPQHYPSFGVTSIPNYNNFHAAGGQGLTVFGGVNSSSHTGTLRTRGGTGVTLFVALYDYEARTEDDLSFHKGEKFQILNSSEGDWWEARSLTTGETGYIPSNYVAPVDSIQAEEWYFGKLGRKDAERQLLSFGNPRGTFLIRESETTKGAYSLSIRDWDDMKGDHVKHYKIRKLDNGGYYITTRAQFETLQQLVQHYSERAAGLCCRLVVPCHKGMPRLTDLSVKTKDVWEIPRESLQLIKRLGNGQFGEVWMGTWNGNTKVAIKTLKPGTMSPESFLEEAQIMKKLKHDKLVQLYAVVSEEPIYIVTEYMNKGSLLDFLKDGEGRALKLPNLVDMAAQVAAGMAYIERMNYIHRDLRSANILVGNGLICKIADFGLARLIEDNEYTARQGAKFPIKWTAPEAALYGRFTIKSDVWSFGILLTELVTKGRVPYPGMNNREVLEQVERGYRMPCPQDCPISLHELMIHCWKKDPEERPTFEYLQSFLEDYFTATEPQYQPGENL

EPHB2 = EPHB2 (UniProt P29323); experiment: as above
EPHB1 = EPHB1 (UniProt P54762); experiment: as above
Chain of EPHB1 (P54762 whole entry, looked up): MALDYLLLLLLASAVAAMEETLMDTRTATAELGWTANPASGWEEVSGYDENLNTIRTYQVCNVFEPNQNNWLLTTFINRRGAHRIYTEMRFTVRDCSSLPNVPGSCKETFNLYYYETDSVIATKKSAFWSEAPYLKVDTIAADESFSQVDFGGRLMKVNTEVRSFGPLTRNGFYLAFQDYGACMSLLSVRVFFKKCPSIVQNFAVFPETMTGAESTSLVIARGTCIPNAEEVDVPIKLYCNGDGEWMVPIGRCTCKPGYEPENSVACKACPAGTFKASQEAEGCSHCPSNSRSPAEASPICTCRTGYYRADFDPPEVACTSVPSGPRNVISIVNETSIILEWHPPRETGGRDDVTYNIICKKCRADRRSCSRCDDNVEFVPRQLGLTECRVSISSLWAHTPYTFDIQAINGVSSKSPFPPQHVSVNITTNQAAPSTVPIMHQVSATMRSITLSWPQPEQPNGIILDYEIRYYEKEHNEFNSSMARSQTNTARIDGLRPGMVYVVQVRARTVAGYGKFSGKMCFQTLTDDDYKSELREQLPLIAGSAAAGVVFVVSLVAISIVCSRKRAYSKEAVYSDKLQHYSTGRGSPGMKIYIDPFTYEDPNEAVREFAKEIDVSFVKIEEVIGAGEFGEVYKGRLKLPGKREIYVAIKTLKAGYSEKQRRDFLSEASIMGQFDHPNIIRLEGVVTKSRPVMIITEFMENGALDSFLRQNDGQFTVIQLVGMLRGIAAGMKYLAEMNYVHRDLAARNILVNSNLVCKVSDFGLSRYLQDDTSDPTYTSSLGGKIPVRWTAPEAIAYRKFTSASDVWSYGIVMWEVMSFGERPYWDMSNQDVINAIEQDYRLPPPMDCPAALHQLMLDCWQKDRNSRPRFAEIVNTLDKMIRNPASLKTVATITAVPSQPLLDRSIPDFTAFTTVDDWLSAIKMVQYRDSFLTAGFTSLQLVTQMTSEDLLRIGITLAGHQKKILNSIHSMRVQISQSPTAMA

Fes = Fes (UniProt P07332); experiment: as above
Chain of Fes (P07332 whole entry, looked up): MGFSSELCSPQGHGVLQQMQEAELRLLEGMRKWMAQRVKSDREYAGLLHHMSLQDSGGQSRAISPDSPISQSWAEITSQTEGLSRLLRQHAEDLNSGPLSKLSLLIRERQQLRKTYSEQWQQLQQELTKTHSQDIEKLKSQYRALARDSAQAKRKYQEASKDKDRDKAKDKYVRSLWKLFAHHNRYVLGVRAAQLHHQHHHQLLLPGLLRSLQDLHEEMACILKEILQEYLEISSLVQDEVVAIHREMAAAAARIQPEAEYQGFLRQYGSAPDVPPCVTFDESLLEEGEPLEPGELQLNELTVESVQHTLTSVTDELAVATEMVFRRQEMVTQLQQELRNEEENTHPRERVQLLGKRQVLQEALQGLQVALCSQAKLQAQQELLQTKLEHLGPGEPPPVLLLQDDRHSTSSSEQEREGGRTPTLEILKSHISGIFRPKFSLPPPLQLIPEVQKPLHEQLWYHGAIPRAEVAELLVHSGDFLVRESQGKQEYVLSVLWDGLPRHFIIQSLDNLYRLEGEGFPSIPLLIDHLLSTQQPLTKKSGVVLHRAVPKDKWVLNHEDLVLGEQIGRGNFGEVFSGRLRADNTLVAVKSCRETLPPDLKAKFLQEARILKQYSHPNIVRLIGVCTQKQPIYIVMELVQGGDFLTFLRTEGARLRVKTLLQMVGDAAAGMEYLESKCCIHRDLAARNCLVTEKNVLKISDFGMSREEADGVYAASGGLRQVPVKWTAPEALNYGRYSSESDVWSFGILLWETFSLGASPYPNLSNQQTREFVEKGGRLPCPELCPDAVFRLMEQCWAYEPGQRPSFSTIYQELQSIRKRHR

AncSZ = experiment: as above
MERTK = MERTK (UniProt Q12866); experiment: as above
SHP2-C SH2 = experiment: SH2 binding enrichment of the phosphorylated peptide, bacterial display (enrichment ratio); higher = better substrate or ligand; peptides without Tyr show the background
c-Src SH2 = experiment: as above
Grb2 SH2 = Grb2 SH2 (UniProt P62993); experiment: as above
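Throughout, for SH2 binding enrichment of the phosphorylated peptide, bacterial display: peptide library displayed on the E. coli surface as eCPX fusions, selected cells deep-sequenced, score is each peptide's frequency after selection divided by its frequency in the input.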
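Throughout, for phosphorylation enrichment, bacterial display: 11-residue human phosphosite peptides and single-mutation variants displayed on the E. coli surface, counted by deep sequencing, each peptide's frequency after selection divided by its frequency in the unselected input library; frequency after pTyr selection over input frequency; kinase dosed for 20-30% of maximal phosphorylation in three min.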

Chain of Hck (P08631 whole entry, looked up): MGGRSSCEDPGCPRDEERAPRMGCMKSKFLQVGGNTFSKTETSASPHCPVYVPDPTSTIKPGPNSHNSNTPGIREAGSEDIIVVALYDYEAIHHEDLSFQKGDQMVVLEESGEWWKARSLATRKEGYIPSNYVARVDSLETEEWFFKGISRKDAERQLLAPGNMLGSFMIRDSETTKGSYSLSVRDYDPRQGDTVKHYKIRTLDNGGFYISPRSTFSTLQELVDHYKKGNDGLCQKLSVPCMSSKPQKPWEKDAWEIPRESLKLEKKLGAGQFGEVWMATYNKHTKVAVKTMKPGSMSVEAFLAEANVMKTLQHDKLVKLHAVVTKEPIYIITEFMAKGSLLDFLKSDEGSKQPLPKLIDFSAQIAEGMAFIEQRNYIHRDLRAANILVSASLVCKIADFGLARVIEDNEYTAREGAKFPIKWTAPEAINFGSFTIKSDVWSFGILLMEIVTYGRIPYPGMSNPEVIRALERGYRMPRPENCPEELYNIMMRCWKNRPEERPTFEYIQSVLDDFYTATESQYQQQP

| SH2 binding enrichment (SHP2-C SH2) | SH2 binding enrichment (c-Src SH2) | SH2 binding enrichment (Grb2 SH2) | Sequence | phosphorylation enrichment (c-Abl (mouse)) | phosphorylation enrichment (c-Src) | phosphorylation enrichment (Hck) | phosphorylation enrichment (Fer (mouse)) | phosphorylation enrichment (FGFR1) | phosphorylation enrichment (FGFR3) | phosphorylation enrichment (Jak2) | phosphorylation enrichment (Fyn) | phosphorylation enrichment (EPHB2) | phosphorylation enrichment (EPHB1) | phosphorylation enrichment (Fes) | phosphorylation enrichment (AncSZ) | phosphorylation enrichment (MERTK) |
| --- | --- | --- | --- | --- | --- | --- | --- | --- | --- | --- | --- | --- | --- | --- | --- | --- |
| 1.04 | 0.81 | 1.16 | SKEPYYVHCIK [MYO1D_Y586_R588H] | 0.615 | 0.543 | 0.557 | 0.498 | 0.77 | 0.664 | 0.677 | 0.58 | 0.704 | 0.622 | 0.932 | 0.965 | 0.559 |
| 0.62 | 0.614 | 1.11 | PADSGYPAYLG [ATP6V1A_Y374] | 1.14 | 0.592 | 0.735 | 0.798 | 0.755 | 0.892 | 0.823 | 1.05 | 0.468 | 1.77 | 1.51 | 1.18 | 0.417 |
| 0.86 | 0.449 | 0.814 | IGDENYGEGSS [ACO2_Y665] | 0.882 | 0.522 | 0.59 | 0.518 | 0.533 | 0.738 | 1.39 | 0.529 | 0.606 | 0.511 | 1.18 | 1.25 | 0.586 |
| 0.846 | 0.531 | 0.835 | GRLFAYPDTHC [CAT_Y358_R363C] | 0.75 | 0.403 | 0.481 | 0.479 | 0.466 | 0.687 | 0.785 | 0.466 | 0.512 | 0.556 | 1.05 | 0.784 | 0.432 |
| 0.787 | 0.485 | 0.887 | MANYMYKAGPS [MAML2_Y515] | 1.04 | 0.556 | 0.51 | 0.358 | 0.465 | 0.496 | 0.497 | 0.508 | 0.963 | 1.32 | 0.616 | 0.636 | 0.584 |
| 0.878 | 0.677 | 0.962 | KAIMTYVSSFF [ACTN4_Y260_YF] | 0.527 | 0.592 | 0.531 | 0.437 | 0.533 | 0.647 | 0.561 | 0.559 | 0.602 | 0.57 | 0.821 | 0.911 | 0.494 |
| 0.69 | 0.617 | 0.685 | MDNQEYKDAFT [BRDT_Y331_K336T_YF] | 0.737 | 0.458 | 0.488 | 0.539 | 0.539 | 0.802 | 1.15 | 0.486 | 0.913 | 0.56 | 1.3 | 1.14 | 0.402 |
| 0.637 | 0.513 | 0.774 | ERTIEYLEEVA [HADHA_Y239] | 0.863 | 0.521 | 0.622 | 0.663 | 0.608 | 0.845 | 1.2 | 0.722 | 0.704 | 0.593 | 1.35 | 1.28 | 0.541 |
| 0.708 | 0.686 | 1.14 | PDSVDYRKKGY [CTSK_Y121] | 0.976 | 0.905 | 0.78 | 0.657 | 1.06 | 0.661 | 1.01 | 0.749 | 1.67 | 0.599 | 1.08 | 1.07 | 0.823 |
